Assay results as given in the Immune Epitope Database (IEDB).
pKd: −log10 of the molar value.

Columns and labels:
Assay in all cases: IEDB peptide-MHC binding, purified MHC/competitive/radioactivity; filed as Kd, often an IC50 or EC50 that approximates it; ≥ and ≤ were set here for values at or beyond the usual limits of such assays
[1] = biological target: HLA-A*11:01
[2] = biological target: HLA-A*31:01
[3] = biological target: HLA-A*33:01
[4] = biological target: HLA-A*03:01
[5] = biological target: HLA-A*68:01
[6] = source organism: Vaccinia virus WR
[7] = source organism: SARS coronavirus Tor2
[8] = source organism: Dengue virus 3 Martinique/1243/1999
[9] = source organism: Mammarenavirus lassaense
[10] = source organism: Dengue virus 2 Jamaica/1409/1983
[11] = source organism: Dengue virus 1 Brazil/97-11/1997
[12] = source organism: Dengue virus 4 Philippines/H241/1956
[13] = source organism: Dengue virus 1 Nauru/West Pac/1974
[14] = source organism: Mammarenavirus brazilense

Row | Sequence | pKd [1, 6] | pKd [2, 6] | pKd [3, 6] | pKd [4, 6] | pKd [5, 6] | other results
1 | TSKTTILSK | 6.39 | 5.69 | ≤ 4.42 | 5.34 | 5.95 | 
2 | FASADNHPK | 6.76 | 4.91 | 5.91 | 5.10 | 7.25 | 
3 | IIGHIGHHY | 5.34 | ≤ 4.11 | ≤ 4.11 | 5.19 | ≤ 4.64 | 
4 | FIRIIRPDY | ≤ 4.25 | 5.15 | ≤ 4.61 | ≤ 4.11 | 5.51 | 
5 | TMADLVYALR |  |  |  |  |  | pKd [1, 7]: 6.05; pKd [2, 7]: 7.09; pKd [3, 7]: 6.87; pKd [4, 7]: 5.65; pKd [5, 7]: 8.03
6 | MLPPCYNFLK |  |  |  |  |  | pKd [1, 7]: 8.02; pKd [2, 7]: 6.89; pKd [3, 7]: 6.86; pKd [4, 7]: 8.17; pKd [5, 7]: 8.58
7 | ILFEEVMRGK |  |  |  |  |  | pKd [4, 8]: 8.05
8 | VSDFRDYQSY | 5.33 | ≤ 4.15 | ≤ 4.15 | ≤ 4.49 | ≤ 4.29 | 
9 | DLTTMPTYK | 6.53 | 6.20 | 6.04 | 6.12 | 6.89 | 
10 | ICKMPLPTR |  |  |  |  |  | pKd [1, 9]: 5.22; pKd [2, 9]: 7.43; pKd [3, 9]: 6.11; pKd [4, 9]: ≤ 4.39; pKd [5, 9]: 4.79
11 | QSVLCVKKFY | 4.88 | 4.81 | ≤ 4.61 | 5.86 | 5.25 | 
12 | GSIKIKQDVR | 6.21 | 6.55 | 5.61 | 5.09 | 6.60 | 
13 | YTCEDNTGIK | 5.97 | ≤ 4.15 | ≤ 4.15 | ≤ 4.53 | 6.59 | 
14 | QQLEDIFMR | 4.87 | 5.92 | 5.39 | 5.57 | 5.26 | 
15 | KVLAARLKR | 6.80 | 6.18 | 4.73 | 6.20 | 8.22 | 
16 | LLYAAEMVEY | 9.24 | 6.63 | 4.77 | 8.41 | 8.03 | 
17 | TIKYSNDNRY | 5.05 | ≤ 4.52 | ≤ 4.15 | ≤ 4.69 | 6.02 | 
18 | PIYSHTERDK | 5.18 | 6.01 | ≤ 4.26 | 6.03 | 4.85 | 
19 | VAAEMEEALR |  |  |  |  |  | pKd [5, 10]: 6.89
20 | RTFNEDLFR | 7.82 | 7.75 | 5.80 | 7.13 | 7.65 | 
21 | EFWKLVDRER |  |  |  |  |  | pKd ([3]; source organism: Dengue virus 3 Sri Lanka/1266/2000): 8.53

Row | Sequence | pKd [1, 6] | pKd [2, 6] | pKd [3, 6] | pKd [4, 6] | pKd [5, 6] | other results
22 | NIPTAIQQVR |  |  |  |  |  | pKd [5, 8]: 7.14
23 | MVGANASDR |  |  |  |  |  | pKd ([5]; source organism: Dengue virus 1 Singapore/S275/1990): 7.34
24 | IAARGYISTR |  |  |  |  |  | pKd [5, 10]: 7.92
25 | QLRSLTEILK |  |  |  |  |  | pKd ([4]; source organism: Homo sapiens): 7.26
26 | TTTIFAGHLK |  |  |  |  |  | pKd [1, 11]: 7.64; pKd [5, 11]: 8.05
27 | WSYYCAGLK |  |  |  |  |  | pKd [4, 11]: 7.91
28 | TTLSRTSKK |  |  |  |  |  | pKd [1, 10]: 6.80; pKd [4, 10]: 7.84; pKd [5, 10]: 6.52
29 | NYKERMVTFK |  |  |  |  |  | pKd [3, 12]: 5.85
30 | LMIVARHER |  |  |  |  |  | pKd [2, 12]: 8.29; pKd [3, 12]: 6.94
31 | VTFKNAHAK |  |  |  |  |  | pKd [1, 8]: 7.23; pKd [4, 8]: 8.10; pKd [5, 8]: 7.23
32 | KKKNPRLCTR |  |  |  |  |  | pKd [2, 12]: 5.98
33 | MVLLQMEDK |  |  |  |  |  | pKd [1, 10]: 5.70
34 | GVTLFFLSGR |  |  |  |  |  | pKd [2, 13]: ≤ 4.15; pKd [3, 13]: 7.25
35 | DNQKLSYLK |  |  |  |  |  | pKd [2, 14]: 5.58; pKd [3, 14]: 5.08; pKd [4, 14]: ≤ 4.11; pKd [5, 14]: 5.13
36 | TLLVWHTWQK |  |  |  |  |  | pKd [4, 8]: 7.34
37 | EMGLLETTKR |  |  |  |  |  | pKd [3, 8]: 7.24
38 | YVSAITQAER |  |  |  |  |  | pKd [2, 12]: 6.98; pKd [5, 12]: 7.84
39 | ETTMRGAKR |  |  |  |  |  | pKd [3, 10]: 6.93; pKd [5, 10]: 7.45
40 | ETKGVERLKR |  |  |  |  |  | pKd [3, 8]: 6.47; pKd [5, 8]: 7.85
41 | FLLNISYLCH |  |  |  |  |  | pKd [1, 14]: ≤ 4.33; pKd [2, 14]: 5.23; pKd [3, 14]: 8.27; pKd [4, 14]: 4.93
42 | FVVTLIPLCR |  |  |  |  |  | pKd [3, 12]: 7.93; pKd [5, 12]: 8.51
